In assay [1] the target is recombinant human TrkA protein (human) (UniProt P04629). In words: NGF-blocking ELISA on coated human TrkA, 100 nM btNGF; mAb 0.08 nM. For orientation: An ELISA detects its analyte on a solid surface through an enzyme-linked reagent.
Assay [2] has the same target. In words: NGF-blocking ELISA on coated human TrkA, 100 nM btNGF; mAb 0.31 (printed pM, two-fold series gives nM).
For assay [3] the target is unchanged. The assay is described as follows: NGF-blocking ELISA on coated human TrkA, 100 nM btNGF; mAb 2.5 nM.
Assay [4] has the same target. In words: NGF-blocking ELISA on coated human TrkA, 100 nM btNGF; mAb 5 nM.
Assay [5] has the same target. The assay is described as follows: NGF-blocking ELISA on coated human TrkA, 100 nM btNGF; mAb 0.63 nM.
The target is the same in assay [6]. In words: NGF-blocking ELISA on coated human TrkA, 100 nM btNGF; mAb 20 nM.
Assay [7] has the same target. The assay is described as follows: NGF-blocking ELISA on coated human TrkA, 100 nM btNGF; mAb 0.16 nM.
Assay [8] shares this target. The assay is described as follows: NGF-blocking ELISA on coated human TrkA, 100 nM btNGF; mAb 1.25 nM.
For assay [9] the target is unchanged. In words: NGF-blocking ELISA on coated human TrkA, 100 nM btNGF; mAb 0.02 nM.
Assay [10] has the same target. In words: NGF-blocking ELISA on coated human TrkA, 100 nM btNGF; mAb 10 nM.
The target is the same in assay [11]. In words: NGF-blocking ELISA on coated human TrkA, 100 nM btNGF; mAb 0.04 nM.
For assay [12], the target named is TrkA in rat brain, dorsal root ganglia and skin tissue (rat) (UniProt P35739). In words: cell-based or functional assay.
Assay [13] addresses human TrkA receptor expressed in transfected 3T3 fibroblast cells (human) (UniProt P04629). In words: cell-based or functional assay.
Assay [14] has as its target rat TrkA receptor expressed in transfected HEK293 cells (rat) (UniProt P35739). The assay is described as follows: cell-based or functional assay.

Chain of recombinant human TrkA protein (human) (P04629 other isoform, or with tags, fused parts or gaps limits assumed): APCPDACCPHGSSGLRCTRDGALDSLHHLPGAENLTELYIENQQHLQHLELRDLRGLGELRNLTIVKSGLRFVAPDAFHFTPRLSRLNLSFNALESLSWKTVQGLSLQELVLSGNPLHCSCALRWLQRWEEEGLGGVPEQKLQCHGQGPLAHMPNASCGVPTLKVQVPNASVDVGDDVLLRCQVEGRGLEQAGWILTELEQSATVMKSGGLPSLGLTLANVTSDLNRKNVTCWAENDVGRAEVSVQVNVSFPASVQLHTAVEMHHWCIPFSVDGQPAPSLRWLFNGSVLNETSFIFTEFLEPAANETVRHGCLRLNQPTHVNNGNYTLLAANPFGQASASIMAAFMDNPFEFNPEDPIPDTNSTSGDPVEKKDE
Chain of rat β-NGF (P25427 122-241 limits assumed): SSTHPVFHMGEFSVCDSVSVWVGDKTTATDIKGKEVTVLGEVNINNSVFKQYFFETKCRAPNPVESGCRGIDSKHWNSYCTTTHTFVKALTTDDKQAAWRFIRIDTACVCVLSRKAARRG
Chain of human TrkA receptor expressed in transfected 3T3 fibroblast cells (human) (P04629 33-796): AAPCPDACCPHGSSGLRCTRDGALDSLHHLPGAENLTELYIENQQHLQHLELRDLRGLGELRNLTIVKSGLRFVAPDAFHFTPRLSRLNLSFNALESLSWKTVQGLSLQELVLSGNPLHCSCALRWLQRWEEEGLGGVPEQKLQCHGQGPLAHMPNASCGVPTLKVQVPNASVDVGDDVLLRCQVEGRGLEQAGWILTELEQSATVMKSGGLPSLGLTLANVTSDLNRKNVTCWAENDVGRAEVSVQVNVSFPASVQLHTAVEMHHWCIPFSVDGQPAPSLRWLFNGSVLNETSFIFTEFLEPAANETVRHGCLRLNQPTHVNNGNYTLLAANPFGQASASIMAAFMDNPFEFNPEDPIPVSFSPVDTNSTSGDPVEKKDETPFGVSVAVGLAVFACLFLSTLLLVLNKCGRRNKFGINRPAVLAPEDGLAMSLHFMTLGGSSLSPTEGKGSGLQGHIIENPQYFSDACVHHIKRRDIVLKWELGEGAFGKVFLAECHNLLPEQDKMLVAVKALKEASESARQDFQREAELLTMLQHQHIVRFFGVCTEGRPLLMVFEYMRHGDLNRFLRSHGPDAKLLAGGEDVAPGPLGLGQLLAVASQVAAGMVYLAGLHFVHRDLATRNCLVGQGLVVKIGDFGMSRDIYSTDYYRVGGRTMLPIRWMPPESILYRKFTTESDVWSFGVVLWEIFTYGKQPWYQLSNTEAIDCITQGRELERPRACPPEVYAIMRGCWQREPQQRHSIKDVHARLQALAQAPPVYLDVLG
Chain of rat TrkA receptor expressed in transfected HEK293 cells (rat) (P35739 33-799): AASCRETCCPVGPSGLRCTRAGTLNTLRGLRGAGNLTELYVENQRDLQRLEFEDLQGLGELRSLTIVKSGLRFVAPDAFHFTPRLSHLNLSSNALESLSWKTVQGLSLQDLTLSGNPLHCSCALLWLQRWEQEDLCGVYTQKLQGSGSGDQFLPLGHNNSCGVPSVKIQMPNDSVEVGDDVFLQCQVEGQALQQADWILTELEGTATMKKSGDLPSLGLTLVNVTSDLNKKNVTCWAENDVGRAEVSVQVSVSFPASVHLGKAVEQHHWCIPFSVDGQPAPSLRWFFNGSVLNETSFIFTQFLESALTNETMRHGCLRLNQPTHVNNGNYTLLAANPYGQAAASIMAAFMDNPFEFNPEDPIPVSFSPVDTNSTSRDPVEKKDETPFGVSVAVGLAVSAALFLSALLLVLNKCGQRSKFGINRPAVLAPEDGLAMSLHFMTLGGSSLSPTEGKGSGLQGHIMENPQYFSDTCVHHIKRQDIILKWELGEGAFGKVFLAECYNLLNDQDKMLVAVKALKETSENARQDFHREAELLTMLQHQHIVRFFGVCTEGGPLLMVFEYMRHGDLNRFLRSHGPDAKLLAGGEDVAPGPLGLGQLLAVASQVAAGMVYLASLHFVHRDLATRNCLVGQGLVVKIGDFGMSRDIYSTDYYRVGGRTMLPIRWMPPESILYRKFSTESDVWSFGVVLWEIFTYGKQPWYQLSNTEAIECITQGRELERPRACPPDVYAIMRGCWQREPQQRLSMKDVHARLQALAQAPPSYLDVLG
Chain of TrkA in rat brain, dorsal root ganglia and skin tissue (rat) (P35739 33-799): as above

Regarding IgG1 isotype control antibody, the Absorbance 450 nm in assay [1] worked out at 1.16; in assay [2], 1.19; in assay [3], 1.17; in assay [4] it was 1.1; in assay [5], 1.14; in assay [6], 1.13. The Absorbance 450 nm in assay [7] came out at 1.12; in assay [8], 1.04; in [9], 1.14; in assay [10], 0.97; in assay [11], 1.1.

Regarding IgG4 isotype control antibody, the Absorbance 450 nm was 1.14 in assay [1]; 1.14 in assay [2]; 1.07 in [3]; 1.08 in assay [4]; 1.13 in assay [5]; 1.12 in assay [6]. The Absorbance 450 nm in [7] came to 1.13; in assay [8] it was 1.03; in assay [9], 1.13; in assay [10], 1.11; in [11], 1.15. Further, the pTrkA counts per second, DRG, NGF stimulated, 10 mg/kg SC (counts per second) in assay [12] worked out at 483000. The pTrkA counts per second, DRG, baseline, 10 mg/kg SC (counts per second) in assay [12] was 109000. The substance also yielded a pTrkA counts per second, brain, NGF stimulated, 10 mg/kg SC (counts per second) in assay [12] of 507000. Also, the pTrkA counts per second, brain, baseline, 10 mg/kg SC (counts per second) in [12] was 70600. In [12], this substance yielded a pTrkA counts per second, skin, NGF stimulated, 10 mg/kg SC (counts per second) of 33300. The same substance came in with a pTrkA counts per second, skin, baseline, 10 mg/kg SC (counts per second) in assay [12] of 14500. The pTrkA counts per second, +mAb 1 hr (1 uM), no NGF (counts per second) in assay [13] was found to be 28400. Besides, the pTrkA counts per second, +mAb 24 hr (1 uM), no NGF (counts per second) in assay [13] was 28700. For the same substance, the pTrkA counts per second, NGF + mAb 1 hr (1 uM) (counts per second) in [13] was 238000. Besides, in [13], the pTrkA counts per second, NGF + mAb 24 hr (1 uM) (counts per second) amounted to 290000.

Take “rat β-NGF (from UniProt P25427 122-241) (ligand)”: in assay [14], the pTrkA counts per second, 10 ug/mL NGF alone (mAb A column) (counts per second) was 2.13e+06; the pTrkA counts per second, 10 ug/mL NGF alone (mAb B column) (counts per second) was determined as 4.29e+06; the pTrkA counts per second, 10 ug/mL NGF alone (mAb C column) (counts per second) is 2.81e+06; the pTrkA counts per second, 10 ug/mL NGF alone (mAb D column) (counts per second) worked out at 3.25e+06. In assay [14], the pTrkA counts per second, 10 ug/mL NGF alone (mAb E column) (counts per second) came out at 2.76e+06.

The values above are taken from patent US20190263932A1.
